What was measured:
[1] = molecular target: PI3Kα-RBD (Human PI3Kα residues 157–300) (human) (UniProt P42336); assay: ITC
[2] = molecular target: PI3Kγ-RBD (residues 193–316) (human) (UniProt P48736); assay: ITC

Substance: KRAS4B^G12V (from UniProt P01116-2 1-169) (enzyme)
- Kd [1]: 2.3 µM
- dH [1]: -3.82 kcal/mol
- stoichiometry N [1]: 1.07
- Kd [2]: 2400 nM
- dH [2]: -4.16 kcal/mol
- stoichiometry N [2]: 0.81

Substance: KRAS4B^Q61H (from UniProt P01116-2 1-169) (enzyme)
- Kd [1]: 4 µM
- dH [1]: -2.59 kcal/mol
- stoichiometry N [1]: 1.06
- Kd [2]: 2600 nM
- dH [2]: -2.97 kcal/mol
- stoichiometry N [2]: 0.91
